One experiment has as its target T1, His-SynGAP-EC[1186-1277] (Homo sapiens (Human), UniProt Q96PV0 956-1305).
T1 construct: Expressed in E. coli, purified on nickel resin, 15.75 kDa; also called SYNGAP1 fragment with N-terminal 6His tag
T1 sequence: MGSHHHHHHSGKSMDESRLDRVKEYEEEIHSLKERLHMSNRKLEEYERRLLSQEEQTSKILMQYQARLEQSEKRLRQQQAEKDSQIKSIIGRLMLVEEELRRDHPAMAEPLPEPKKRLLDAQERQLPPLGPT
Nature of the experiment: phage display panning, then polyclonal and monoclonal phage ELISA on plate-coated antigen (4 ug/ml). As for the experimental part:
The concentration of the eluted phages was determined. First, the eluted phages were added to E. Coli TG1. TG1 was poured onto a plate and cultured upside down. The PFU was calculated based on the number of plaques (i.e. dead TG1) on the plate. The eluted phages were added to TG1 followed infection by helper phage and cultured. Phages were precipitated with PEG/NaCl and subsequently resuspended. The phages were screened using a polyclonal ELISA and a monoclonal ELISA. […] ([…]) or control buffer. The coated plate was washed, blocked, washed, and incubated with the amplified eluted phages. Subsequently the plate was washed and incubated with anti-phage-HRP antibody, washed, and incubated with TMB followed by HCL. The result readings were taken at 450 nm. The monoclonal phase ELISA was carried out according to the following. Single TG1 clones randomly selected from plates (described above) were cultured with helper phage. A total of 192 clones from round 3+96 clones from round 4+96 clones from round 5 were selected. The clones were centrifuged and the supernatant (i.e. the phages) were collected. […] The plate was washed, blocked, washed, incubated with the selected phages, washed, incubated with anti-phage-HRP antibody, washed, and incubated with TMB followed by HCL. The results were read of 450 nm.

Experiment [1] addresses T2, SYNGAP1-nanoluc-alfa-tag-fusion.
T2 chain: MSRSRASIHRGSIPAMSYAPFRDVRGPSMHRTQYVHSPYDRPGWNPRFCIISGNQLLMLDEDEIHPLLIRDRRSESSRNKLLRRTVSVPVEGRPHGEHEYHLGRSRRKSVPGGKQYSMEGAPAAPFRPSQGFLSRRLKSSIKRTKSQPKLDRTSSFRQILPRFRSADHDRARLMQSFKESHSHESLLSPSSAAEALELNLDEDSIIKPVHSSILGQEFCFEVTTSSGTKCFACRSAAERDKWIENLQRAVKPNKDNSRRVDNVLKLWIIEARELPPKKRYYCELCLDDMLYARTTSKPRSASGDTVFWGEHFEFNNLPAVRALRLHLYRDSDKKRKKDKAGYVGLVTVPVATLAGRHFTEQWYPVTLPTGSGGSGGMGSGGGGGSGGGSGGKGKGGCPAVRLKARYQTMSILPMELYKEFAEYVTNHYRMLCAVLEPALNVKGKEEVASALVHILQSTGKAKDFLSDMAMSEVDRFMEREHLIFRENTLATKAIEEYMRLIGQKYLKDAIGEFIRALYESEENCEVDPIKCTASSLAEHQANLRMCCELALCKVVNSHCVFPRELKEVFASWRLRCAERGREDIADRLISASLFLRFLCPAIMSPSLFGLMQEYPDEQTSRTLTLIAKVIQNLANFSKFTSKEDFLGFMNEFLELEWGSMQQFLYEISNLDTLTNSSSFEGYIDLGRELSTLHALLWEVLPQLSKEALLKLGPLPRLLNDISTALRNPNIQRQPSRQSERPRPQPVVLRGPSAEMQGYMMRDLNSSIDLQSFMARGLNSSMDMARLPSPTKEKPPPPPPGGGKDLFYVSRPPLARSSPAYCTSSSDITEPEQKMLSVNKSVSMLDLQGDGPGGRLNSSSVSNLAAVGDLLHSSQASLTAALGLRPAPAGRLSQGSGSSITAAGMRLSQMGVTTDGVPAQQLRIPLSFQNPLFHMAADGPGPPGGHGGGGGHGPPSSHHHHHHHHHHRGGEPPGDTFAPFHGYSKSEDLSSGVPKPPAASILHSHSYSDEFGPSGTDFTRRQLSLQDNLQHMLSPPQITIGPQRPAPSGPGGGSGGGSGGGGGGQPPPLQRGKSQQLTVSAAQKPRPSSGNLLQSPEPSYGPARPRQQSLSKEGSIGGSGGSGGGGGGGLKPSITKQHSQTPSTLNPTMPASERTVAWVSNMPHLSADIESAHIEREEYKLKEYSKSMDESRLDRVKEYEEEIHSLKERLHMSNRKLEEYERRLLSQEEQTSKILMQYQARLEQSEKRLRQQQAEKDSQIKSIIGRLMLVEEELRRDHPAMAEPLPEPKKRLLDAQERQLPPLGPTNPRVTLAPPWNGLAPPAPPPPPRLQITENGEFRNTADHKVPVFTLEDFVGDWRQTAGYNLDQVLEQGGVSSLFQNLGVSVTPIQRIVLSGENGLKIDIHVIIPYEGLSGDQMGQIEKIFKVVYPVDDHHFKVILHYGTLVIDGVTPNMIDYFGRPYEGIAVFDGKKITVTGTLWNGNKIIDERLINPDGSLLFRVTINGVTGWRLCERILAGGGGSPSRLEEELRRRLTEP
Nature of the experiment: cell-based or functional assay.

B1: FLX00154 (VHH)
VHH: QVQLVESGGGLVQPGGSLRLSCAASGFIFSSYQMAWVRQAPGKGLEWVADINTGGWNTYYADSVKGRFTISRDNAKNTLYLEMNSLKPEDTAVYYCAADRWMVAKIVGGDLDFDSWGQGTQVTVSS
notes: Camelid VHH from a phage library; also called anti-SynGAP VHH FLX00154; VHH
Consider B1, for which the binding result in the experiment with His-SynGAP-EC[1186-1277] was “binds”.

B2: FLX00155 (VHH)
VHH: QVQLVESGGGLVQPGGSLRLSCAASGFAFGSYDMSWVRQAPGQGPEWVSAITPGGGGTFYAYYSDSVKGRFAISRDNAKNTLTLQMNSLKPDDTAMYYCAKNFYGNGGRGHGTQVTVSS
notes: Camelid VHH from a phage library; also called anti-SynGAP VHH FLX00155; VHH
For the molecule B2, the binding result with His-SynGAP-EC[1186-1277] was “binds”.

B3: FLX00156 (VHH)
VHH: QVQLVESGGGLVQPGGSLRLACAASGFTFGTHAMHWVRWAPGKGFEWVSTISSGGGGTRYADSVKGRFTISRDNAKNTVYLQMDNLKPEDTAVYYCNSPSNIANDNWGQGTQVTVSS
notes: Camelid VHH from a phage library; also called anti-SynGAP VHH FLX00156; VHH
In the case of B3, the binding result in the experiment with His-SynGAP-EC[1186-1277] is given as “binds”.

B4: FLX00152 (VHH)
VHH: QVQLVESGGGLVQPGGSLRLSCAASGFSFSNFPMMWVRQAPGKGREWVADINQDGRNTYYADSVKGRFTISRDNAKTTVYLQMNNLNPEDTAVYYCQAIRTTTHFDSWGQGTQVTVSS
notes: Camelid VHH from a phage library; also called anti-SynGAP VHH FLX00152; VHH
Regarding B4, in the experiment with His-SynGAP-EC[1186-1277], the binding result is “binds”.

B5: FireflyLuciferase-P2A-anti-syngap1_FLX00154-Cezanne (other)
chain: MEDAKNIKKGPAPFYPLEDGTAGEQLHKAMKRYALVPGTIAFTDAHIEVDITYAEYFEMSVRLAEAMKRYGLNTNHRIVVCSENSLQFFMPVLGALFIGVAVAPANDIYNERELLNSMGISQPTVVFVSKKGLQKILNVQKKLPIIQKIIIMDSKTDYQGFQSMYTFVTSHLPPGFNEYDFVPESFDRDKTIALIMNSSGSTGLPKGVALPHRTACVRFSHARDPIFGNQIIPDTAILSVVPFHHGFGMFTTLGYLICGFRVVLMYRFEEELFLRSLQDYKIQSALLVPTLFSFFAKSTLIDKYDLSNLHEIASGGAPLSKEVGEAVAKRFHLPGIRQGYGLTETTSAILITPEGDDKPGAVGKVVPFFEAKVVDLDTGKTLGVNQRGELCVRGPMIMSGYVNNPEATNALIDKDGWLHSGDIAYWDEDEHFFIVDRLKSLIKYKGYQVAPAELESILLQHPNIFDAGVAGLPDDDAGELPAAVVVLEHGKTMTEKEIVDYVASQVTTAKKLRGGVVFVDEVPKGLTGKLDARKIREILIKAKKGGKIAVTRLKGSGATNFSLLKQAGDVEENPGPRSGTGSSGQVQLVESGGGLVQPGGSLRLSCAASGFIFSSYQMAWVRQAPGKGLEWVADINTGGWNTYYADSVKGRFTISRDNAKNTLYLEMNSLKPEDTAVYYCAADRWMVAKIVGGDLDFDSWGQGTQVTVSSGGGGSGGGGSGGGGSGGGGSQVQLVESGGGLVQPGGSLRLSCAASGFIFSSYQMAWVRQAPGKGLEWVADINTGGWNTYYADSVKGRFTISRDNAKNTLYLEMNSLKPEDTAVYYCAADRWMVAKIVGGDLDFDSWGQGTQVTVSSGAPGSGPPSFSEGSGGSRTPEKGFSDREPTRPPRPILQRQDDIVQEKRLSRGISHASSSIVSLARSHVSSNGGGGGSNEHPLEMPICAFQLPDLTVYNEDFRSFIERDLIEQSMLVALEQAGRLNWWVSVDPTSQRLLPLATTGDGNCLLHAASLGMWGFHDRDLMLRKALYALMEKGVEKEALKRRWRWQQTQQNKESGLVYTEDEWQKEWNELIKLASSEPRMHLGTNGANCGGVESSEEPVYESLEEFHVFVLAHVLRRPIVVVADTMLRDSGGEAFAPIPFGGIYLPLEVPASQCHRSPLVLAYDQAHFSALVSMEQKENTKEQAVIPLTDSEYKLLPLHFAVDPGKGWEWGKDDSDNVRLASVILSLEVKLHLLHSYMNVKWIPLSSDAQAPLAQ
With B5, in experiment [1], the “increase in SYNGAP1 expression over the control” value was at least 2 fold.

B6: FLX00153 (VHH)
VHH: QLQLVESGGGLVQPGESLRLSCAASGFTFSNYRMYWVRMAPGKGLEWVSDIDRSGTYTYYADSVKGRFAISRDNAKNTVYLQMNSLKPEDTAVYYCAADRRLIVDLTPEVYDHWGQGTQVTVSS
notes: Camelid VHH from a phage library; also called anti-SynGAP VHH FLX00153; VHH
B6: in the experiment with His-SynGAP-EC[1186-1277], the binding result is “binds”.

B7: FireflyLuciferase-P2A-anti-syngap1_FLX00155-Cezanne (other)
chain: MEDAKNIKKGPAPFYPLEDGTAGEQLHKAMKRYALVPGTIAFTDAHIEVDITYAEYFEMSVRLAEAMKRYGLNTNHRIVVCSENSLQFFMPVLGALFIGVAVAPANDIYNERELLNSMGISQPTVVFVSKKGLQKILNVQKKLPIIQKIIIMDSKTDYQGFQSMYTFVTSHLPPGFNEYDFVPESFDRDKTIALIMNSSGSTGLPKGVALPHRTACVRFSHARDPIFGNQIIPDTAILSVVPFHHGFGMFTTLGYLICGFRVVLMYRFEEELFLRSLQDYKIQSALLVPTLFSFFAKSTLIDKYDLSNLHEIASGGAPLSKEVGEAVAKRFHLPGIRQGYGLTETTSAILITPEGDDKPGAVGKVVPFFEAKVVDLDTGKTLGVNQRGELCVRGPMIMSGYVNNPEATNALIDKDGWLHSGDIAYWDEDEHFFIVDRLKSLIKYKGYQVAPAELESILLQHPNIFDAGVAGLPDDDAGELPAAVVVLEHGKTMTEKEIVDYVASQVTTAKKLRGGVVFVDEVPKGLTGKLDARKIREILIKAKKGGKIAVTRLKGSGATNFSLLKQAGDVEENPGPRSGTGSSGQVQLVESGGGLVQPGGSLRLSCAASGFAFGSYDMSWVRQAPGQGPEWVSAITPGGGGTFYAYYSDSVKGRFAISRDNAKNTLTLQMNSLKPDDTAMYYCAKNFYGNGGRGHGTQVTVSSGGGGSGGGGSGGGGSGGGGSQVQLVESGGGLVQPGGSLRLSCAASGFAFGSYDMSWVRQAPGQGPEWVSAITPGGGGTFYAYYSDSVKGRFAISRDNAKNTLTLQMNSLKPDDTAMYYCAKNFYGNGGRGHGTQVTVSSGAPGSGPPSFSEGSGGSRTPEKGFSDREPTRPPRPILQRQDDIVQEKRLSRGISHASSSIVSLARSHVSSNGGGGGSNEHPLEMPICAFQLPDLTVYNEDFRSFIERDLIEQSMLVALEQAGRLNWWVSVDPTSQRLLPLATTGDGNCLLHAASLGMWGFHDRDLMLRKALYALMEKGVEKEALKRRWRWQQTQQNKESGLVYTEDEWQKEWNELIKLASSEPRMHLGTNGANCGGVESSEEPVYESLEEFHVFVLAHVLRRPIVVVADTMLRDSGGEAFAPIPFGGIYLPLEVPASQCHRSPLVLAYDQAHFSALVSMEQKENTKEQAVIPLTDSEYKLLPLHFAVDPGKGWEWGKDDSDNVRLASVILSLEVKLHLLHSYMNVKWIPLSSDAQAPLAQ
As for B7, the “increase in SYNGAP1 expression over the control” value in experiment [1] is at least 2 fold.

B8: FLX00157 (VHH)
VHH: QVQLVESGGGLVQAGASLRLSCAASERTFGHYAMGWFRQAPGKEREFVATISWKGGTTGYAHSVKGRFTISRDSAKNMVYLQMNSLKPEDTAVYYCAARNTMSGSMSSSAYPYWGQGTQVTVSS
notes: Camelid VHH from a phage library; also called anti-SynGAP VHH FLX00157; VHH
As for B8, the binding result with His-SynGAP-EC[1186-1277] is “binds”.

The values above are taken from patent publication US20240025984A1 (FLUX THERAPEUTICS, published 2024).
